These results are taken from US20210388097A1 (SORRENTO THERAPEUTICS, published 2021).

Test [1] addresses T1, his-tagged mouse BCMA protein (ACROBiosystems, catalog # BCA-M52H3) (mouse, UniProt O88472 1-49).
T1 construct: Bought protein; not shown: his tag
T1 chain (looked up): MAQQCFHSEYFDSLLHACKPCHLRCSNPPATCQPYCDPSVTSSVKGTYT
The test is described as follows: SPR (Biacore T200), antibody captured on anti-human Fc chip, his-tagged mouse BCMA as analyte. On the procedure:
Binding kinetics of anti-BCMA antibodies with his-tagged human BCMA protein (ACROBiosystems, catalog # BCA-H522y-100 ug, UniProt Q02223-1, SEQ ID NO:92) was measured using surface plasmon resonance (SPR). Kinetic interactions between the antibodies and his-tagged BCMA proteins were measured at 25° C. using Biacore T200 surface plasmon resonance (GE Healthcare). Anti-human fragment crystallizable region (Fc region) antibody was immobilized on a CM5 sensor chip to approximately 8000 resonance units (RU) using standard N-hydroxysuccinimide/N-Ethyl-N′-(3-dimethylaminopropyl) carbodiimide hydrochloride (NHS/EDC) coupling methodology. The anti-BCMA antibody (2 μg/mL) was captured for 60 seconds at a flow rate of 10 μL/minute. The his-tagged BCMA protein was run at […] different dilutions of 3.12, 6.25, 12.5, 25, 50, 100 and 200 nM, in a running buffer of 0.01 M HEPES pH 7.4, 0.15 M NaCl, 3 mM EDTA, 0.05% v/v Surfactant P20 (HBS-EP+). The 25 nM BCMA protein run was measured two times. All measurements were conducted in HBS-EP+ buffer with a flow rate of 30 μL/minute. A 1:1 (Langmuir) binding model was used to fit the data. […]
Cross reactivity of two of the anti-BCMA antibodies, BCA7-2C5 and BCA7-2E1, with his-tagged human, cynomolgus or mouse BCMA protein were analyzed by SPR in the manner as described above. […]
(In general: SPR reads the build-up and loss of mass on a sensor chip optically.)

The target in test [2] is T2, human BAFFR/TNFRSF13C (CD268) Fc tag, from Sino Biological (human, UniProt Q96RJ3 1-71, limits assumed).
T2 construct: Bought protein; not shown: Fc tag
T2 sequence (looked up): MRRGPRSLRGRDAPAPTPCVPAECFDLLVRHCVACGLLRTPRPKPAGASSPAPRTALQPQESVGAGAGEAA
The experiment in a line: bio-layer interferometry, antibody coupled to AR2G sensor, BAFFR in solution. On the procedure: Bio-layer interferometry was used to measure cross-binding between (1) two different anti-BCMA antibodies (BCA7-2C5 or BB C11D5) or a control isotype, and (2) various human antigens including TACI and BAFFR.
Immobilization of antibody was achieved through standard EDC-catalyzed amide bond formation to create a covalent bond between a reactive amine on the protein and the carboxy-terminated biosensor surface. Briefly, AR2G sensors (OctetRED96e from ForteBio) were activated by EDC-NHS for 6 minutes, then 5 ug/ml antibodies were loaded (BCA7-2C5 antibody, Bluebird C11D5 chimeric antibody, or a human IgG isotype antibody) in 10 mM acetate buffer pH 5.0 for 6 minutes, followed by quenching for 6 minutes with 1M ethanolamine pH 8.5. The 3 minutes baseline step removed any unbound antibody from the biosensor, followed by 1.5 minutes each for association of three analyte proteins TACI (human TACI/TNFRSF13B (CD267) His-tag, from Sino Biological, 1 ug/mL in PBS), BAFFR (human BAFFR/TNFRSF13C (CD268) Fc tag) from Sino Biological, 2 ug/mL in PBS), and human BCMA protein (in-house made with mouse Fc, 2 ug/mL in PBS).

In test [3] the target is T3, his-tagged human BCMA protein (ACROBiosystems, catalog # BCA-H522y-100 ug) (human, UniProt Q02223 1-54).
T3 construct: limits of the bought construct are not otherwise stated; also called recombinant his-tagged human BCMA; not shown: his tag of the bought protein
T3 sequence: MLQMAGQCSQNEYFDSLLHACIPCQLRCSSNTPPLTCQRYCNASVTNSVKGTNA
The test is described as follows: SPR (Biacore T200), antibody captured on anti-human Fc, his-tagged human BCMA as analyte; fit with ka1/kd1/ka2/kd2 (model not named). On the procedure: Binding kinetics of anti-BCMA antibodies with his-tagged human BCMA protein (ACROBiosystems, catalog # BCA-H522y-100 ug, UniProt Q02223-1, SEQ ID NO:92) was measured using surface plasmon resonance (SPR). Kinetic interactions between the antibodies and his-tagged BCMA proteins were measured at 25° C. using Biacore T200 surface plasmon resonance (GE Healthcare). Anti-human fragment crystallizable region (Fc region) antibody was immobilized on a CM5 sensor chip to approximately 8000 resonance units (RU) using standard N-hydroxysuccinimide/N-Ethyl-N′-(3-dimethylaminopropyl) carbodiimide hydrochloride (NHS/EDC) coupling methodology. The anti-BCMA antibody (2 μg/mL) was captured for 60 seconds at a flow rate of 10 μL/minute. The his-tagged BCMA protein was run at […] different dilutions of 3.12, 6.25, 12.5, 25, 50, 100 and 200 nM, in a running buffer of 0.01 M HEPES pH 7.4, 0.15 M NaCl, 3 mM EDTA, 0.05% v/v Surfactant P20 (HBS-EP+). The 25 nM BCMA protein run was measured two times. All measurements were conducted in HBS-EP+ buffer with a flow rate of 30 μL/minute. […] The SPR sensorgrams of anti-BCMA antibodies BCA7, GSK J6M0, BC4C9 and BC5C4 are shown in FIGS. 1, 2, 3 and 4, respectively, and their corresponding binding kinetics are listed in Table 3.
Binding kinetics of optimized anti-BCMA antibodies BCA7-2C5, BCA7-2D11, BCA7-2G2, BCA7-2E1, BCA7-2D8 and BCA7-2E8, with his-tagged human BCMA protein (ACROBiosystems, catalog # BCA-H522y-100 ug), were analyzed in the manner as described above.

B1: BCA7-2C5 antibody (antibody, V domains shown)
VH: EVQLVESGGGLVKPGGSLRLSCAASGFTSSTAWMSWVRQAPGKGLEWVGRIKSKSDGGTTDYAAPVKGRFTISRDDSKNTLFLQMNSLKTEDTAVYYCAKGGGTYGYWGQGTTVTVSS
VL: QSALTQPASVSGSPGQSVTISCTGTSSAHGGHYYVSWYQQHPGKAPKLMIYDVSNRPSGVSNRFSGSKSGNTASLTISGLQAEDEADYYCGSYTSSGSYVFGTGTKLTVL
By Kd is commonly meant the free concentration of one partner at which half of the binding sites on the other are occupied at equilibrium, for simple one-to-one binding. A lower Kd goes with higher affinity. For B1, the Kd in test [1] came out at 880 nM. In test [2], the binding result is given as “no binding (tested: 2 ug/mL)”. In test [3], this molecule displayed a Kd of 19.4 nM, a ka1 of 1.37e+06 M⁻¹ s⁻¹, a ka2 of 0.000847 s⁻¹ and a kd1 of 0.0422 s⁻¹. Further, in test [3], the kd2 worked out at 0.00145 s⁻¹.
